Measured values: the supplement of paper PMC9112550, “Optimization of the antimicrobial peptide Bac7 by deep mutational scanning” (BMC Biology, 2022)

Each sequence was assayed on Escherichia coli TOP10 (assay: shrunken log2 fold change of peptide-encoding DNA abundance (4.5 h post-induction vs induction); higher = less antimicrobial activity (less host growth inhibition)). Conditions: time post-induction: 4.5 h; library: site-saturation at positions 5, 18, 19, 20.
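Note: peptides expressed intracellularly from a pBAD plasmid library in pooled LB shake-flask culture, induced with 0.3% L-arabinose, DNA abundance read by NGS, three biological replicates, DESeq2 with apeglm shrinkage.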

Row | Sequence | shrunken log2 fold change
1 | RRIRSRPPRLPRPRPRPDHRPRP | 0.0482
2 | RRIRMRPPRLPRPRPRPTMVPRP | 0.263
3 | RRIRLRPPRLPRPRPRPAHPPRP | 0.522
4 | RRIRRRPPRLPRPRPRPKDWPRP | 0.36
5 | RRIRQRPPRLPRPRPRPPRKPRP | 0.835
6 | RRIRGRPPRLPRPRPRPDEIPRP | -0.0447
7 | RRIRERPPRLPRPRPRPQYQPRP | -1.12
8 | RRIRPRPPRLPRPRPRPTGVPRP | 0.0313
9 | RRIRDRPPRLPRPRPRPQNDPRP | -0.215
10 | RRIRFRPPRLPRPRPRPSQQPRP | -0.277
11 | RRIRRRPPRLPRPRPRPTVGPRP | 0.0232
12 | RRIRQRPPRLPRPRPRPQHHPRP | -0.527
13 | RRIRCRPPRLPRPRPRPMLQPRP | 0.0596
14 | RRIRERPPRLPRPRPRPAEVPRP | -0.0184
15 | RRIRARPPRLPRPRPRPVWYPRP | -0.395
16 | RRIRLRPPRLPRPRPRPMRFPRP | 0.0595
17 | RRIRWRPPRLPRPRPRPLDLPRP | 0.00678
18 | RRIRKRPPRLPRPRPRPVVFPRP | -0.0936
19 | RRIRQRPPRLPRPRPRPSQMPRP | -0.0442
20 | RRIRYRPPRLPRPRPRPLTMPRP | -0.529
21 | RRIRMRPPRLPRPRPRPKEMPRP | 0.31
22 | RRIRYRPPRLPRPRPRPHEQPRP | -0.0662
23 | RRIRPRPPRLPRPRPRPGYIPRP | -0.553
24 | RRIRFRPPRLPRPRPRPNVIPRP | -0.173
25 | RRIRMRPPRLPRPRPRPIAIPRP | 0.226

Row | Sequence | shrunken log2 fold change
26 | RRIRNRPPRLPRPRPRPIAQPRP | -0.00164
27 | RRIRVRPPRLPRPRPRPEIPPRP | 0.054
28 | RRIRRRPPRLPRPRPRPIACPRP | 0.0283
29 | RRIRGRPPRLPRPRPRPMLIPRP | 0.312
30 | RRIRSRPPRLPRPRPRPQFRPRP | -0.0597
31 | RRIRRRPPRLPRPRPRPHRQPRP | 0.0248
32 | RRIRHRPPRLPRPRPRPPVHPRP | 0.00286
33 | RRIRHRPPRLPRPRPRPGNRPRP | 0.013
34 | RRIRHRPPRLPRPRPRPHQFPRP | 0.0262
35 | RRIRSRPPRLPRPRPRPESYPRP | 1.29
36 | RRIRRRPPRLPRPRPRPFACPRP | 0.152
37 | RRIRWRPPRLPRPRPRPNGTPRP | 1.67
38 | RRIRHRPPRLPRPRPRPSCHPRP | -0.509
39 | RRIRRRPPRLPRPRPRPQHCPRP | -0.0448
40 | RRIRGRPPRLPRPRPRPLVGPRP | 0.439
41 | RRIRCRPPRLPRPRPRPGPCPRP | 0.0993
42 | RRIRLRPPRLPRPRPRPHNKPRP | -0.59
43 | RRIRARPPRLPRPRPRPSIMPRP | -0.178
44 | RRIRKRPPRLPRPRPRPCSFPRP | -0.397
45 | RRIRARPPRLPRPRPRPQLMPRP | 0.125
46 | RRIRNRPPRLPRPRPRPEYMPRP | -0.0146
47 | RRIRMRPPRLPRPRPRPPSTPRP | 0.97
48 | RRIRIRPPRLPRPRPRPRSHPRP | -0.287
49 | RRIRDRPPRLPRPRPRPPMVPRP | 0.207
50 | RRIRERPPRLPRPRPRPKNLPRP | 0.072

Row | Sequence | shrunken log2 fold change
51 | RRIRNRPPRLPRPRPRPIWTPRP | -0.115
52 | RRIRNRPPRLPRPRPRPPGNPRP | 0.532
53 | RRIRNRPPRLPRPRPRPVFFPRP | -0.223
54 | RRIRCRPPRLPRPRPRPPLVPRP | 0.584
55 | RRIRTRPPRLPRPRPRPYQQPRP | 0.0675
56 | RRIRMRPPRLPRPRPRPVGMPRP | 0.366
57 | RRIRNRPPRLPRPRPRPRRFPRP | 0.0247
58 | RRIRRRPPRLPRPRPRPMSCPRP | 0.0813
59 | RRIRERPPRLPRPRPRPFCQPRP | -0.528
60 | RRIRCRPPRLPRPRPRPNCLPRP | -0.19
61 | RRIRNRPPRLPRPRPRPTRDPRP | 0.386
62 | RRIRCRPPRLPRPRPRPTNLPRP | -0.656
63 | RRIRFRPPRLPRPRPRPDNMPRP | -0.748
64 | RRIRMRPPRLPRPRPRPMYYPRP | -0.339
65 | RRIRDRPPRLPRPRPRPVHFPRP | 0.033
66 | RRIRCRPPRLPRPRPRPIYKPRP | -0.559
67 | RRIRIRPPRLPRPRPRPFDHPRP | -0.225
68 | RRIRCRPPRLPRPRPRPCTIPRP | 0.105
69 | RRIRGRPPRLPRPRPRPVPHPRP | -0.0133
70 | RRIRSRPPRLPRPRPRPHIEPRP | -0.295
71 | RRIRQRPPRLPRPRPRPEPDPRP | 0.271
72 | RRIRTRPPRLPRPRPRPVHDPRP | -0.0747
73 | RRIRMRPPRLPRPRPRPAATPRP | 0.573
74 | RRIRSRPPRLPRPRPRPGDGPRP | 0.78
75 | RRIRFRPPRLPRPRPRPIATPRP | -0.0109

Row | Sequence | shrunken log2 fold change
76 | RRIRERPPRLPRPRPRPCNSPRP | 0.00408
77 | RRIRSRPPRLPRPRPRPMLDPRP | -0.291
78 | RRIRKRPPRLPRPRPRPQPGPRP | 0.406
79 | RRIRVRPPRLPRPRPRPVRPPRP | 0.555
80 | RRIRCRPPRLPRPRPRPLTGPRP | -0.994
81 | RRIRLRPPRLPRPRPRPQALPRP | -0.042
82 | RRIRGRPPRLPRPRPRPAPGPRP | 1.12
83 | RRIRSRPPRLPRPRPRPMDIPRP | -0.00112
84 | RRIRLRPPRLPRPRPRPICQPRP | 0.0108
85 | RRIRGRPPRLPRPRPRPSITPRP | 0.0975
86 | RRIRRRPPRLPRPRPRPGYTPRP | 0.243
87 | RRIRTRPPRLPRPRPRPTQDPRP | 0.837
88 | RRIRSRPPRLPRPRPRPVSNPRP | -0.0276
89 | RRIRNRPPRLPRPRPRPYRTPRP | -0.268
90 | RRIRQRPPRLPRPRPRPFYNPRP | -0.739
91 | RRIRHRPPRLPRPRPRPPPWPRP | 0.446
92 | RRIRVRPPRLPRPRPRPGAEPRP | 0.271
93 | RRIRWRPPRLPRPRPRPASDPRP | 0.342
94 | RRIRCRPPRLPRPRPRPNGMPRP | -0.398
95 | RRIRDRPPRLPRPRPRPDPTPRP | 0.0932
96 | RRIRSRPPRLPRPRPRPFYTPRP | -0.903
97 | RRIRKRPPRLPRPRPRPPTPPRP | 0.796
98 | RRIRWRPPRLPRPRPRPGCYPRP | -0.0343
99 | RRIRQRPPRLPRPRPRPPYLPRP | -0.289
100 | RRIRTRPPRLPRPRPRPWADPRP | 0.015

Row | Sequence | shrunken log2 fold change
101 | RRIRSRPPRLPRPRPRPQWSPRP | -0.176
102 | RRIRYRPPRLPRPRPRPYYTPRP | -0.0958
103 | RRIRERPPRLPRPRPRPIYNPRP | -0.85
104 | RRIRVRPPRLPRPRPRPKTYPRP | 0.325
105 | RRIRFRPPRLPRPRPRPWVHPRP | 0.0589
106 | RRIRFRPPRLPRPRPRPEDIPRP | 0.0107
107 | RRIRLRPPRLPRPRPRPNKFPRP | -0.206
108 | RRIRYRPPRLPRPRPRPDRKPRP | -0.157
109 | RRIRFRPPRLPRPRPRPYPMPRP | -0.119
110 | RRIRKRPPRLPRPRPRPRTCPRP | -0.202
111 | RRIRPRPPRLPRPRPRPFLYPRP | -0.138
112 | RRIRKRPPRLPRPRPRPILPPRP | 2.29
113 | RRIRERPPRLPRPRPRPWMRPRP | 0.079
114 | RRIRNRPPRLPRPRPRPQQNPRP | 0.00594
115 | RRIRTRPPRLPRPRPRPARKPRP | 0.179
116 | RRIRLRPPRLPRPRPRPLLPPRP | 0.368
117 | RRIRCRPPRLPRPRPRPAARPRP | 0.392
118 | RRIRCRPPRLPRPRPRPSWEPRP | -0.0769
119 | RRIRMRPPRLPRPRPRPTRHPRP | 0.889
120 | RRIRKRPPRLPRPRPRPYYHPRP | 0.158
121 | RRIRCRPPRLPRPRPRPNQAPRP | -0.146
122 | RRIRKRPPRLPRPRPRPTTGPRP | 0.733
123 | RRIRTRPPRLPRPRPRPPEPPRP | 0.416
124 | RRIRVRPPRLPRPRPRPTNIPRP | -0.783
125 | RRIRERPPRLPRPRPRPVYLPRP | -0.267

Row | Sequence | shrunken log2 fold change
126 | RRIRLRPPRLPRPRPRPIFRPRP | 0.00696
127 | RRIRPRPPRLPRPRPRPVVIPRP | -0.191
128 | RRIRMRPPRLPRPRPRPNPSPRP | 0.758
129 | RRIRLRPPRLPRPRPRPDILPRP | -0.154
130 | RRIRCRPPRLPRPRPRPQVFPRP | -0.13
131 | RRIRKRPPRLPRPRPRPDMFPRP | -0.258
132 | RRIRKRPPRLPRPRPRPDCLPRP | -0.116
133 | RRIRGRPPRLPRPRPRPRTVPRP | 0.448
134 | RRIRLRPPRLPRPRPRPEAYPRP | 0.0406
135 | RRIRHRPPRLPRPRPRPFAGPRP | -0.205
136 | RRIRHRPPRLPRPRPRPFGCPRP | 0.0728
137 | RRIRPRPPRLPRPRPRPCNKPRP | -0.102
138 | RRIRRRPPRLPRPRPRPESGPRP | 0.545
139 | RRIRGRPPRLPRPRPRPFWQPRP | 0.467
140 | RRIRMRPPRLPRPRPRPHLMPRP | 0.151
141 | RRIRTRPPRLPRPRPRPMPDPRP | -0.0705
142 | RRIRSRPPRLPRPRPRPNKMPRP | -0.05
143 | RRIRCRPPRLPRPRPRPWYRPRP | -0.705
144 | RRIRTRPPRLPRPRPRPNVGPRP | 0.202
145 | RRIRVRPPRLPRPRPRPWIVPRP | -0.266
146 | RRIRGRPPRLPRPRPRPLVNPRP | 0.4
147 | RRIRRRPPRLPRPRPRPVLDPRP | 0.402
148 | RRIRSRPPRLPRPRPRPVGMPRP | 0.12
149 | RRIRLRPPRLPRPRPRPNLKPRP | -0.367
150 | RRIRFRPPRLPRPRPRPPIQPRP | 0.0333
